Experiment [1] deals with mouse TfR protein (mouse) (UniProt Q62351).
The next experiment addresses Aβ1-40 monomers (UniProt P05067). Briefly: ELISA; sandwich ELISA; 1 nM Aβ1-40 monomers or 1 nM Aβ1-42 aggregates held by coated rabbit polyclonal antibodies (C-terminal of Aβ, or Aβ1-42); serial dilutions of the recombinant proteins in 0.1% BSA, 0.05% Tween-20 in PBS, 2 h at RT; goat anti-mouse HRP. For orientation: An ELISA detects its analyte on a solid surface through an enzyme-linked reagent.

The target of the next experiment is Aβ1-42 aggregates (UniProt P05067). The experiment is described as above.
Chain of Aβ1-42 aggregates (P05067 672-713): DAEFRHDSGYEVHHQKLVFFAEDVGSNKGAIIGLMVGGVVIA

Chain of Aβ1-40 monomers (P05067 672-711): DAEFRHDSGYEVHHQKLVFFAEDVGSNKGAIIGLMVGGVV

The substance sNEP-scFc-scFv8D3 (Fc fusion) registered a brain uptake (%ID per gram brain tissue) 2 h after intravenous injection of the 125I-labelled protein (0.05 mg/kg) in tg-ArcSwe mice, against sNEP without scFv8D3 in experiment [1] of 20 fold. The fold weaker binding than the 3D6 antibody control with Aβ1-40 monomers was 50 fold; with Aβ1-42 aggregates it was 100 fold.
